Experimental data taken from publication PMC4609290.

Molecular target: H3(15-34) peptide (UniProt P68431)
Assay: ITC

Kd: 5 µM
Substance: AF10PZP (as used for ITC) (from UniProt P55197-1 1-208) (domain or fragment)
